According to patent publication US20230242623A1 (GEORGIA TECH RESEARCH, published 2023):

B1: 3A2 (antibody, V domains shown)
VH: QVTLKESGPGILQPSQTLSLTCSFSGFSLSTSGMGVSWIRQPSGKGLEWLAHIYWDDDKRYNPSLKSRLTISKDTSSSQVFLKITSVDTVDTATYYCARRGPLITTDGTFDVWGAGTTVTVSS
VL: DIVMTQSRKFMSTSVGDRVSITCKASQDVGTSVAWYQQKPGQSPKLLIYWASTRHTGVPDRFTGSGSGTDFTLTINSVQSEDLADYFCQQYSSYPYTFGGGTKLEMK
notes: also called 3A2 clone
B2: 3A7 (antibody, V domains shown)
VH: B1 VH
VL: B1 VL
notes: also called 3A7 clone
B3: 3F5 (antibody, V domains shown)
VH: B1 VH
VL: B1 VL
notes: also called 1-3F5
B4: 3B3 (antibody, V domains shown)
VH: DVQLQESGPGLVKPSQSLSLTCTVTGYSITSDYAWIWIRQFPGNKLEWMAYISYSGTTSYNPSLKSRISITRDTSKNQFFLQLNSVTTEDTATYYCAGRRGAYYGNYEEDYWGRGTSVTVSS
VL: QIVLTQSPAIMSASPGEKVTMTCSSSSIVNYMYWYQQKPGSSPRLLIYDTSTLASGVPVRFSGSGSGTSYSLTISRMEAEDAATYYCQQWSSYPYTFGGGTKLEIK
notes: also called 3B3 clone; 1-3B3
B5: 3F2 (antibody, V domains shown)
VH: QVQLQQPGAELVKPGASVKMSCKASGYTFTSYSLHWVKQTPGQGLEWIGAVYPGNDDTSYNQNFKGKATLTADKSSNTAYMQLSSLTSEDSAVYYCARDGYFAMDYWGQGTSVTVSS
VL: DIVMSQSPSSLAVSVGEKVTMSCKSSQSLLYSTNQKNYLAWYQQKPGQSPKLLIYWASTRESGVPDRFTGSGSGTDFTLTISSVKAEDLAVYYCHQYYSYPWTFGGGTKLEIK
notes: also called 1-3F2
B6: 3H2 (antibody, V domains shown)
VH: QVQLQQSGAELMKPGASVKISCKATGNTFSNYWIEWVKQRPGHGLEWIGEILPGSDSTNYNEKFKGKATFTADTSSKTAYMQLSSLTSEDSAVYYCARNRFYWYFDVWGAGTTVTVSS
VL: DVVMTQTPLSLPVSLGDQASISCRSSQSLVHSNGNTYLHWYLQKPGQSPKLLIYKVSNRFSGVPDRFSGSGSGTDFTLKISRVEAEDLGIYFCSQSTHVPWTFGGGTKLEIK
notes: also called 1-3H2

Molecular target: T1, SARS-CoV-2 RBD (RBD-luciferase antigen of the split-luciferase reporter) (SARS-CoV-2, UniProt P0DTC2 319-541)
T1 construct: domain: RBD
Assay: split-luciferase reporter of RBD-hACE2 interaction; antibody against hACE2

Binder | % inhibition of RBD-hACE2 binding [%]
B1 | > 80
B2 | > 80
B3 | > 80
B4 | > 80
B5 | > 80
B6 | > 80
